Reference: paper PMC7746637 (Nature chemical biology, 2020)
Like-named read-outs stand apart in the source and are kept apart here. Values belong to the molecule of their own block, whether it stands above or below them.

What was measured:
Assay in all cases: native MS
[1] = molecular target: K2P4.1a (TRAAK, shorter isoform, truncated, residues 1-264), tags removed (human)
native MS [2] = molecular target: the molecule itself
native MS [3] = molecular target: the molecule itself; remark: listed apart in the source

stoichiometry N [1]: 2
Molecule: K2P4.1a (TRAAK, shorter isoform, truncated, residues 1-264), tags removed (domain or fragment)

B1: K2P4.1b (residues 1-290) as a C-terminal fusion to mCherry, Strep-tag II and His6 (pPIC-K2P4.1b-mC-S-H) (domain or fragment, human, UniProt Q9NYG8-2 1-290, looked up)
chain: MTTAPQEPPARPLQAGSGAGPAPGRAMRSTTLLALLALVLLYLVSGALVFRALEQPHEQQAQRELGEVREKFLRAHPCVSDQELGLLIKEVADALGGGADPETQSTSQSSHSAWDLGSAFFFSGTIITTIGYGNVALRTDAGRLFCIFYALVGIPLFGILLAGVGDRLGSSLRHGIGHIEAIFLKWHVPPELVRVLSAMLFLLIGCLLFVLTPTFVFCYMEDWSKLEAIYFVIVTLTTVGFGDYVAGADPRQDSPAYQPLVWFWILLGLAYFASVLTTIGNWLRVVSRRT
stoichiometry N (native MS [2]): 2

B2: K2P4.1b (TRAAK, longer isoform, truncated, residues 1-290), expressed with tags at both termini, tags removed (domain or fragment, human, UniProt Q9NYG8-2 1-290, looked up)
chain: B1 chain
stoichiometry N (native MS [3]): 2
